# Measured values published in paper PMC6375885, “Specific Inhibition of Soluble γc Receptor Attenuates Collagen-Induced Arthritis by Modulating the Inflammatory T Cell Responses” (Frontiers in Immunology, 2019).
# B1: soluble common gamma chain (sγc), wild type (natural protein)
# chain: WSSKVLMSSANEDIKADLILTSTAPEHLSAPTLPLPEVQCFVFNIEYMNCTWNSSSEPQATNLTLHYRYKVSDNNTFQECSHYLFSKEITSGCQIQKEDIQLYQTFVVQLQDPQKPQRRAVQKLNLQNLVIPRAPENLTLSNLSESQLELRWKSRHIKERCLQYLVQYRSNRDRSWTELIVNHEPRFSLPSVDELKRYTFRVRSRYNPICGSSQQWSKWSQPVHWGSHTVEECLQFPPSRI
# notes: signal peptide in the construct; common gamma chain (γc, IL-2Rγ), the part before the new C-terminal 9 a.a. of the alternatively spliced soluble form; not part of the membrane form of γc; Secreted; found as a disulfide-linked dimer and as a monomer in the supernatant; The reverse primer has no stop codon, so a C-terminal tag from the vector may follow (surmise; also called WT sγc; soluble γc; …)
# Molecular target: the molecule itself
# Test: immunoprecipitation, non-reducing SDS-PAGE and immunoblot; culture supernatant of transfected HEK293T cells precipitated with α-mouse IL-2Rγ antibody and protein A/G agarose; resolved under non-reducing conditions (DTT-); blotted with biotinylated α-mouse IL-2Rγ antibody; dimer and monomer bands
protein,measurement,value
B1,stoichiometry N,2
